Results taken from patent US7884067B2, “Peptides derived from cadherin and methods of use thereof” (Mount Sinai School of Medicine of New York University, priority 2001, dated 2011).

What was measured:
MEF-1 = test: Electrophoretic mobility shift assay, MEF-1 probe; type: biochemical; conditions: FIG. 11C lanes 12-14
Protocol: Electrophoresis mobility shift assay (EMSA). Nuclear extract from CBP-transfected L cells were prepared using the extraction kit N-XTRACT (Sigma) according to manufacturer's instructions. Ten microgram of nuclear extract was used for EMSA performed according to manufacturer's instructions using biotinylated double-stranded oligonucleotide probes containing DNA-binding motifs for CREB or MEF-1 (Panomics). Probes are as follow: CREB, 5′-[…]-3′ (SEQ ID NO: 17); MEF-1,5′-[…]-3′ (SEQ ID NO: 18). Reaction products were separated on 6% polyacrylamide gels in cold TBE buffer (50 mM Tris-HCl, 45 mM Boric acid, 0.5 mM EDTA), transferred to nylon membranes (Immobilon-Ny+, Millipore) and bound probes were immobilized for 30 minutes at 85° C. and visualized by chemiluminescence using streptavidin-HRP conjugate. For antibody supershift analysis, nuclear extract was incubated for 3 hours at 4° C. with […] of 1 B6 antibody prior to probe addition. Where indicated, nuclear extract ([…]) was immunoprecipitated with A-22 antibody ([…]) and protein A-agarose in EBC buffer (50 mM Tris, pH 8, 120 mM NaCl, 0.5% NP40, 1× Complete protease inhibitor cocktail).

c-fos = c-fos mRNA (RT-PCR) and protein (Western blot) in L cells; type: cell-based
Protocol: Reverse Transcriptase (RT)-PCR Analysis. Total RNA was extracted from cells using a RNeasy Mini Kit (Qiagen) according to instructions by the manufacturer. Analysis of gene expression was performed using semiquantitative RT-PCR. The following primers were used: 5′-[…]-3′ (SEQ ID NO: 13) and 5′-[…]-3′ (SEQ ID NO: 14) for c-fos; 5′-[…]-3′ (SEQ ID NO: 15) and 5′-[…]-3′ (SEQ ID NO: 16) for gapdh.
Semi-quantitative RT-PCR was used to determine relative levels of c-fos or gapdh mRNAs from L cells transfected either with vector (vector) or with 0.5 mg of pN-Cad/CTF2 (N-Cad/CTF2). The graph in FIG. 9C represents the relative abundance of c-fos-specific PCR products following quantitation of the mRNA signals shown in the upper panel.
Extracts from L cells transfected with increasing amount of pN-Cad/CTF2 were probed on WBs with anti-c-fos (FIG. 9D, upper panel), anti-β-tubulin (FIG. 9D, middle panel) or C32 (FIG. 9D, lower panel) antibodies. Bars in lower panel represent the relative amounts of c-fos protein detected on WBs shown in the upper panel.

CBP = biological target: T1, CBP (Mus musculus, UniProt P45481); test: Co-immunoprecipitation in pN-Cad/CTF2-transfected L cells; type: binding; conditions: FIG. 11B
T1 construct: a process that relies on endogenous CBP and CREB; endogenous in cells; host or cells: L cells transfected with vector or pN-Cad/CTF2
Protocol: Immunoprecipitations (IPs), immunoblotting and immunofluorescence. IPs were performed as described by Marambaud et al. (2002) EMBO J. 21: 1948-1956 in 4° C. HEPES buffer (25 mM HEPES, pH 7.4, 150 mM NaCl, 1× Complete protease inhibitor cocktail, Roche) containing 0.5% Nonidet P40 (NP40). For western blot (WB) analysis, cells were solubilized in 4° C. RIPA buffer (50 mM Tris-HCl, pH 8, 150 mM NaCl, 0.1% SDS, 1% NP-40, 0.5% sodium deoxycholate, 1× Complete protease inhibitor cocktail) as described by Marambaud et al. (2002). Immunofluorescence was performed as described by Georgakopoulos et al. (1999) with the following modifications: to visualize nuclei, cells were treated for 5 minutes with 4′,6-diamidino-2-phenylndole (DAPI, 1:5000; Sigma). Fluorescence microscopy and digital image acquisition were carried out using an Axioskop2 microscope (Zeizz).
To determine how N-Cad/CTF2 affects CREB-mediated transcription, the following experiments were performed. L cells transfected either with vector (vector) or pN-Cad/CTF2 (N-Cad/CTF2) plasmids were fractionated into nuclear and cytosolic fractions, and probed on WBs with anti-CBP (FIG. 11A, panel a), anti-N-cadherin (FIG. 11A, panel b), anti-β-tubulin (FIG. 11A, panel c) or anti-phosphorylated CREB (P-CREB; FIG. 11A, panel d) antibodies. […] L cells transiently transfected with pN-Cad/CTF2 were analyzed by immunofluorescence staining. […]

T1 sequence (P45481 whole entry): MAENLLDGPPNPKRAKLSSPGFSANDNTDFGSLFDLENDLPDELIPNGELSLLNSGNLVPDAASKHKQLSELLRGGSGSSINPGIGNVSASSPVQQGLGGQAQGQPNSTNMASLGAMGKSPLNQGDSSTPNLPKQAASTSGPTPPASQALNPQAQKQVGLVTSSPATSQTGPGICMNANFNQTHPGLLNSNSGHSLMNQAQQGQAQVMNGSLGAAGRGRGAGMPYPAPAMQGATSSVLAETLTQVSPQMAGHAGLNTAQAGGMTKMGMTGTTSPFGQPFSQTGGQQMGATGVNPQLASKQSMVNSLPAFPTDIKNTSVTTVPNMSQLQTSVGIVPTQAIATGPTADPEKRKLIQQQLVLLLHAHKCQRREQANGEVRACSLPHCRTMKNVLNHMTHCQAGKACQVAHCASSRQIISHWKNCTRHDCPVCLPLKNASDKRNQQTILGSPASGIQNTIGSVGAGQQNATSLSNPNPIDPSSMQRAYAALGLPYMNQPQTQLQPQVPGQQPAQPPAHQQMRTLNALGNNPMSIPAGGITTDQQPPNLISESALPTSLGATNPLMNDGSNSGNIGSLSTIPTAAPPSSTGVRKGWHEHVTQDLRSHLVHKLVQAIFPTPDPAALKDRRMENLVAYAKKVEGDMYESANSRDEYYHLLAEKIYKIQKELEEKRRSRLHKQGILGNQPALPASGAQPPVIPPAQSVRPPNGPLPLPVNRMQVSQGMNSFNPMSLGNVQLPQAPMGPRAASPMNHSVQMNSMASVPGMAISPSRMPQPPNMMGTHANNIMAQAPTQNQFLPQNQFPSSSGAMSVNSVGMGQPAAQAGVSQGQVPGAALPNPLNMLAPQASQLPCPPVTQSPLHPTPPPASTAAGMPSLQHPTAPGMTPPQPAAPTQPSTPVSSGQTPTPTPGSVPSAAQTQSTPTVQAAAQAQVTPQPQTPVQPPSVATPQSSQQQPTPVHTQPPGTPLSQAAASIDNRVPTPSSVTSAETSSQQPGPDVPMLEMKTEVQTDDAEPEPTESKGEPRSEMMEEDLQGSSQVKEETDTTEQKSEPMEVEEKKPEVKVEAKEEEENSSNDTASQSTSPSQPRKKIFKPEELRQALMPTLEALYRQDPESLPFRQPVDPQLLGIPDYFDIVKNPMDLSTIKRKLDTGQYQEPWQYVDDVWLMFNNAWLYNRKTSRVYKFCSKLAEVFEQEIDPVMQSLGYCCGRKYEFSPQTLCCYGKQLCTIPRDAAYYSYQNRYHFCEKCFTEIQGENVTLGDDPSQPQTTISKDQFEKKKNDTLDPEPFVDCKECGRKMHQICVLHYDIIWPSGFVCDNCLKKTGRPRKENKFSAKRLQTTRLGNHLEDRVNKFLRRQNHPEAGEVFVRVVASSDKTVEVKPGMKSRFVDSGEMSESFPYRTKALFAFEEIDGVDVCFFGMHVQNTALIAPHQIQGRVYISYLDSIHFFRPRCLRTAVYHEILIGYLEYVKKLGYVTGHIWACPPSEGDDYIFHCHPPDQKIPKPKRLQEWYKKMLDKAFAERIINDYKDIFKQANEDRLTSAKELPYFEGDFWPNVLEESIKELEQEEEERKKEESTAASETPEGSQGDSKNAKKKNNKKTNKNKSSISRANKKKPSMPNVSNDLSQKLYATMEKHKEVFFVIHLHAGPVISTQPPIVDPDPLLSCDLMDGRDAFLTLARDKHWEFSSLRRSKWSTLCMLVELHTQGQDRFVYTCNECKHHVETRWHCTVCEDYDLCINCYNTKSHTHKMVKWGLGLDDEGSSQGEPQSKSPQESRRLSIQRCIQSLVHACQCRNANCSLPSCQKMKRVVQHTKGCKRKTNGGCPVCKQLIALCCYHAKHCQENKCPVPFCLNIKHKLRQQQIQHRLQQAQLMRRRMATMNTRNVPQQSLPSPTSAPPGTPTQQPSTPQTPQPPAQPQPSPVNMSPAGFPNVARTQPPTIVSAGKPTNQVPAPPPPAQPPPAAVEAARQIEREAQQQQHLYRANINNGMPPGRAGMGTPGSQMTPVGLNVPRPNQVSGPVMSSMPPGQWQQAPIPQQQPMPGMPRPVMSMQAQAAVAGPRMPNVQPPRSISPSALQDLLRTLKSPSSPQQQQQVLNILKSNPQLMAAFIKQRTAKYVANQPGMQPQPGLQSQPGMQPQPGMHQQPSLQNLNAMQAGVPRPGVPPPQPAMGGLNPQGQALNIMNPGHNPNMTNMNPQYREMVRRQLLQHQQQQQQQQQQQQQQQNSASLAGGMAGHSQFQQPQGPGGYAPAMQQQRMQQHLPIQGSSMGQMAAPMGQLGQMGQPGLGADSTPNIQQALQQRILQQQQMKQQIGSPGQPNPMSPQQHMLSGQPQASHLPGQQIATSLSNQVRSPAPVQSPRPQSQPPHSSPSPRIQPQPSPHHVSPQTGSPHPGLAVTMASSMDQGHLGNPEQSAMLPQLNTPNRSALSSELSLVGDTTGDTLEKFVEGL

B1: N-Cad/CTF2: chicken cytoplasmic domain of N-cadherin (N-Cad/CTF2) inserted into vector pECE, expressed in L cells (protein)
chain: KRRDKERQAKQLLIDPEDDVRDNILKYDEEGGGEEDQDYDLSQLQQPDTVEPDAIKPVGIRRLDERPIHAEPQYPVRSAAPHPGDIGDFINEGLKAADNDPTAPPYDSLLVFDYEGSGSTAGSLSSLNSSSSGGEQDYDYLNDWGPRFKKLADMYGGGDD
B1 was tested, and the “complex formation between MEF-1 and DNA probe containing MEF-1-binding elements” value (MEF-1) was “no effect”, the “cellular c-fos mRNA” value (c-fos; 0.5 mg of pN-Cad/CTF2, vs vector, FIG. 9C) was “markedly reduces” and the c-fos protein (c-fos; increasing amount of pN-Cad/CTF2, FIG. 9D) was “markedly reduces”. For the same molecule, the “levels of β-tubulin” value (c-fos; pN-Cad/CTF2, FIG. 9D) was “no effect”, the “expression of gapdh mRNA” value (c-fos; pN-Cad/CTF2 vs vector, FIG. 9C) was “no effect” and the “co-immunoprecipitation of N-Cad/CTF2 with CBP” value (CBP) was “co-immunoprecipitates with CBP”.
